Measurements published in the supplement of paper PMC7125110.
± gives the standard error. This sample holds only a part of the variants without activity.

B1: glmS ribozyme (parent)
chain: AUAAAAGCGCCAGAACUACAGAAAUGUAGUUGACGAGGAGGAGGUUUAUCGAAUUUUCGGCGGAUGCCUCCAAA

How the values were obtained:
Details in all cases: with glucosamine-6-phosphate
glucosamine-6-phosphate [1] = variants of: B1; experiment: self-cleavage kobs at 640 uM GlcN6P; higher = faster cleavage; RNA array
Method in brief: (§1)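 Tiles bearing barcoded ribozyme variants, transcribed in situ by E. coli RNA polymerase on sequenced MiSeq chips, were imaged over ~14 h at 37 °C using a hybridised Cy3 probe. Glucosamine-6-phosphate was supplied at 40 μM to 10 mM in HEPES/KCl/Mg(OAc)2 buffer. kobs came from one- or two-exponential decay fits to normalised per-tile medians, and weighted Michaelis–Menten fits then provided kcat and KM.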

glucosamine-6-phosphate [2] = variants of: B1; experiment: self-cleavage kobs at 2500 uM GlcN6P; higher = faster cleavage; RNA array
Method in brief: as §1

glucosamine-6-phosphate [3] = variants of: B1; experiment: self-cleavage kobs at 10000 uM GlcN6P; higher = faster cleavage; RNA array
Method in brief: as §1

| Variant | self-cleavage kobs at 640 uM GlcN6P (glucosamine-6-phosphate [1]) [s⁻¹] | self-cleavage kobs at 2500 uM GlcN6P (glucosamine-6-phosphate [2]) [s⁻¹] | self-cleavage kobs at 10000 uM GlcN6P (glucosamine-6-phosphate [3]) [s⁻¹] |
| --- | --- | --- | --- |
| A39U A48G G60C | < 1e-05 | < 1e-05 |  |
| C34G A48G C70U | < 1e-05 |  |  |
| G40U G43U U49C | < 1e-05 | < 1e-05 |  |
| A33C G38C U55C C61G C71U | < 1e-05 | < 1e-05 |  |
| G44U G62A C70U | < 1e-05 |  |  |
| A36G A53U C68A C71G | 8.35e-05 ± 2e-05 |  |  |
| G38U U45G G51A | < 1e-05 | < 1e-05 |  |
| C34U A36U G41C A53G | < 1e-05 |  |  |
| G43A A48G U56A C68G | < 1e-05 |  |  |
| G41U A53U U56G G66A | 5.34e-05 ± 1.9e-05 | 0.000221 ± 4.9e-05 |  |
| G37C G60U U69A | < 1e-05 | < 1e-05 |  |
| U45A U57G G62A | < 1e-05 | < 1e-05 |  |
| A36U C61U C71U | < 1e-05 |  | < 1e-05 |
| G35U G44C G66U | < 1e-05 |  |  |
| G44A A53U U54G C61U | < 1e-05 |  |  |
| U45G U46C G59U U65G U69G | < 1e-05 | < 1e-05 |  |
| C34G U45C G59U G62A G66A | < 1e-05 |  |  |
| G40U U45C C67G | 4.79e-05 ± 1.9e-05 | 7.13e-05 ± 1.7e-05 |  |
| A39U G43C C70G | < 1e-05 | < 1e-05 |  |
| G35U G38A G51U | < 1e-05 |  |  |
| G35C G43U C61U | < 1e-05 | < 1e-05 |  |
| A36U G44A G62A C71G | < 1e-05 | < 1e-05 |  |
| A36C G43U U45G U46C U65G | < 1e-05 | < 1e-05 |  |
| C34U C58A G59U | < 1e-05 | < 1e-05 |  |
| A33U C34G | < 1e-05 | < 1e-05 | < 1e-05 |
| G44U A53G U65C | < 1e-05 |  |  |

| Variant | self-cleavage kobs at 640 uM GlcN6P (glucosamine-6-phosphate [1]) [s⁻¹] | self-cleavage kobs at 2500 uM GlcN6P (glucosamine-6-phosphate [2]) [s⁻¹] | self-cleavage kobs at 10000 uM GlcN6P (glucosamine-6-phosphate [3]) [s⁻¹] |
| --- | --- | --- | --- |
| C34U A36G G62A U69G | 0.00111 ± 0.00031 | 0.000939 ± 0.00035 |  |
| A39G G60U C67G | < 1e-05 | < 1e-05 | < 1e-05 |
| G40C G44U U47C U55A | < 1e-05 | < 1e-05 |  |
| U45G U47G C71U | 0.000978 ± 0.00031 |  |  |
| G35U C58A A64U | < 1e-05 | < 1e-05 |  |
| A36U G43U | < 1e-05 | < 1e-05 |  |
| U45G C70G | 0.000176 ± 7.2e-05 | 4.73e-05 ± 1.8e-05 | 0.000258 ± 6.7e-05 |
| G41U U55G A64G | 8.52e-05 ± 3.1e-05 | 0.000147 ± 4.4e-05 |  |
| A42C G60C C70U | < 1e-05 | < 1e-05 | < 1e-05 |
| G35U G38U G41C | < 1e-05 | < 1e-05 |  |
| A36G G38U C68G | 9.46e-05 ± 3.2e-05 |  | 3.1e-05 ± 1.5e-05 |
| G32U U56A C67A | 0.000114 ± 2.4e-05 | 0.000294 ± 8.2e-05 |  |
| A39C U46A U56G | 4.61e-05 ± 1.8e-05 |  |  |
| G35A C50G C68U C70G | 0.000738 ± 0.00024 | 0.000111 ± 4.4e-05 |  |
| A39G C50G C67U | 0.000571 ± 0.00018 | 0.000299 ± 0.00012 |  |
| U45A G63C | < 1e-05 | < 1e-05 |  |
| G35A G51A U54A G63U | < 1e-05 |  |  |
| A42C G51A U69A | < 1e-05 |  |  |
| G35A A39U G51C | < 1e-05 | < 1e-05 |  |
| G41A A53U U56G G60A | < 1e-05 | < 1e-05 |  |
| G38U C50G G62U | 0.000714 ± 0.00023 | 6.98e-05 ± 2e-05 |  |
| G35U U57C | < 1e-05 | < 1e-05 |  |
| A33G G43U C70G | < 1e-05 |  |  |
| G38C U46C G59U U65C C67A | < 1e-05 | < 1e-05 |  |
| A33U G37A G59A | < 1e-05 |  |  |
| G38U U47G C68U | 0.000119 ± 4e-05 |  |  |

| Variant | self-cleavage kobs at 640 uM GlcN6P (glucosamine-6-phosphate [1]) [s⁻¹] | self-cleavage kobs at 2500 uM GlcN6P (glucosamine-6-phosphate [2]) [s⁻¹] | self-cleavage kobs at 10000 uM GlcN6P (glucosamine-6-phosphate [3]) [s⁻¹] |
| --- | --- | --- | --- |
| G43A U57G U69A | < 1e-05 |  |  |
| A33C C34G A53C U57A G66C | < 1e-05 |  |  |
| G41U G51C U69C | < 1e-05 | < 1e-05 |  |
| A33C U54G A64C C70G | < 1e-05 | < 1e-05 |  |
| G44C C50G G62U | < 1e-05 |  |  |
| A42G A52U | 5.23e-05 ± 1.2e-05 | 0.000479 ± 9.3e-05 | 0.000467 ± 9.8e-05 |
| A36G G37U A42C G44U | < 1e-05 |  | < 1e-05 |
| G37A U56G A64U | < 1e-05 | < 1e-05 |  |
| G35U A39G G59U | < 1e-05 |  |  |
| G40C A42C A48C A52U | < 1e-05 |  | < 1e-05 |
| G43A C50A | < 1e-05 |  |  |
| G35A G37A U57A C68A | 0.000784 ± 0.00036 |  |  |
| C34G G63A C67A | < 1e-05 | < 1e-05 |  |
| A33G A39C G41A C50A | < 1e-05 |  |  |
| G35U U47G A52G C70A | 9.25e-05 ± 3.2e-05 |  |  |
| G38U C58U C67U C70U C71A | 9.38e-05 ± 3.9e-05 |  |  |
| G35A G40U G43U G59A C67G | < 1e-05 | < 1e-05 |  |
| G38C G60C U65G | < 1e-05 |  |  |
| A33U C34U C71G | < 1e-05 |  |  |
| A42C G43U U57A | < 1e-05 | < 1e-05 | < 1e-05 |
| A36G A39G G40U | < 1e-05 | < 1e-05 | < 1e-05 |
| A42U C61U C67U | < 1e-05 |  |  |
| A33U C34G G44A G51A | < 1e-05 | < 1e-05 |  |
| G43C C61U G62A | < 1e-05 |  |  |
| A42C U46G C71G | < 1e-05 | < 1e-05 |  |
| C34A G35A U65G | < 1e-05 |  |  |

| Variant | self-cleavage kobs at 640 uM GlcN6P (glucosamine-6-phosphate [1]) [s⁻¹] | self-cleavage kobs at 2500 uM GlcN6P (glucosamine-6-phosphate [2]) [s⁻¹] | self-cleavage kobs at 10000 uM GlcN6P (glucosamine-6-phosphate [3]) [s⁻¹] |
| --- | --- | --- | --- |
| A33G A36G U47G C71G | 0.000121 ± 4.4e-05 |  |  |
| G35C G38U | < 1e-05 | < 1e-05 |  |
| G38C G43C C68U | < 1e-05 |  |  |
| G35U A39C C71U | < 1e-05 | < 1e-05 |  |
| C34G G60A G62C U69G | < 1e-05 |  |  |
| G40C G51C G63C C71A | < 1e-05 | < 1e-05 |  |
| G38C U57G | < 1e-05 |  |  |
| G38C C50G C67G | 6.94e-05 ± 1.3e-05 | 0.000141 ± 4.2e-05 |  |
| C34A C67U | < 1e-05 | < 1e-05 |  |
| A33U A39C A48U G59U | < 1e-05 |  |  |
| G37A G63A C71A | < 1e-05 | < 1e-05 |  |
| A42G G43A C67U C68U | 0.000241 ± 0.00011 |  | 0.000713 ± 0.00018 |
| G37U C70G C71A | 5.1e-05 ± 1.4e-05 |  |  |
| G41C G60U U65C C67G C68A | < 1e-05 |  |  |
| A36U U65C C70G | 0.000173 ± 7.9e-05 |  |  |
| G37C G40A C50G | < 1e-05 | < 1e-05 |  |
| A36C G40C | < 1e-05 | < 1e-05 | < 1e-05 |
| A33G G59A | < 1e-05 |  | < 1e-05 |
| G43U C50G C70G | < 1e-05 |  |  |
| A36G A42G U56G | < 1e-05 |  |  |
| A36G U49A G63U | < 1e-05 |  |  |
| G44U U47C C71U | < 1e-05 | < 1e-05 |  |
| G38C C58A C71U | < 1e-05 |  |  |
| A39C A42U G62C A64U | < 1e-05 |  |  |
| G37C U46G C50U | < 1e-05 |  | < 1e-05 |
| G44U U47G A52G A64G | < 1e-05 |  |  |

| Variant | self-cleavage kobs at 640 uM GlcN6P (glucosamine-6-phosphate [1]) [s⁻¹] | self-cleavage kobs at 2500 uM GlcN6P (glucosamine-6-phosphate [2]) [s⁻¹] | self-cleavage kobs at 10000 uM GlcN6P (glucosamine-6-phosphate [3]) [s⁻¹] |
| --- | --- | --- | --- |
| A33G A48C C61A C67G | < 1e-05 |  | < 1e-05 |
| A42U C61G G66A | < 1e-05 |  |  |
| C34U A42G C58U A64G U65G | < 1e-05 | < 1e-05 |  |
| U45A A48C G60U C67U | < 1e-05 |  |  |
| G44C U47G | < 1e-05 |  |  |
| A33U U46C G63A | < 1e-05 | < 1e-05 |  |
| C34U G41C A52U G60C U69G | < 1e-05 |  | < 1e-05 |
| G44A U45C C61A | < 1e-05 | < 1e-05 |  |
| G40A G41C A42C C70U | < 1e-05 |  |  |
| G38U A48U C61G C71U | < 1e-05 |  |  |
| G38A G44A G51U U54G | < 1e-05 |  |  |
| G40C A48G U56G G59U A64C C70G | < 1e-05 |  |  |
| G41A U45C C70A | 5.47e-05 ± 1.8e-05 |  |  |
| G44U G51A C68U | < 1e-05 | < 1e-05 |  |
| U45C C71G | 8.57e-05 ± 2.5e-05 | 5.59e-05 ± 2.2e-05 | 0.000305 ± 6.9e-05 |
| C34A G43U U55C | < 1e-05 | < 1e-05 |  |
| A42G U54G U55G U65A C67A C71U | 0.000215 ± 3.1e-05 | 8.43e-05 ± 2e-05 |  |
| A33C C50U G60U | < 1e-05 |  |  |
| A36C G51U A53C | < 1e-05 | < 1e-05 | < 1e-05 |
| G41C U47G G59U | < 1e-05 | < 1e-05 |  |
| A36G G62A | < 1e-05 | < 1e-05 | < 1e-05 |
| G43C A53U U55A U57A | < 1e-05 |  |  |
| A39G G51A | < 1e-05 | < 1e-05 |  |
